The target in the assay is bacterially expressed beta18 (Drosophila). Kind of assay: chymotrypsin protection.
Chain of bacterially expressed beta18 (Drosophila) (Q00963 whole entry): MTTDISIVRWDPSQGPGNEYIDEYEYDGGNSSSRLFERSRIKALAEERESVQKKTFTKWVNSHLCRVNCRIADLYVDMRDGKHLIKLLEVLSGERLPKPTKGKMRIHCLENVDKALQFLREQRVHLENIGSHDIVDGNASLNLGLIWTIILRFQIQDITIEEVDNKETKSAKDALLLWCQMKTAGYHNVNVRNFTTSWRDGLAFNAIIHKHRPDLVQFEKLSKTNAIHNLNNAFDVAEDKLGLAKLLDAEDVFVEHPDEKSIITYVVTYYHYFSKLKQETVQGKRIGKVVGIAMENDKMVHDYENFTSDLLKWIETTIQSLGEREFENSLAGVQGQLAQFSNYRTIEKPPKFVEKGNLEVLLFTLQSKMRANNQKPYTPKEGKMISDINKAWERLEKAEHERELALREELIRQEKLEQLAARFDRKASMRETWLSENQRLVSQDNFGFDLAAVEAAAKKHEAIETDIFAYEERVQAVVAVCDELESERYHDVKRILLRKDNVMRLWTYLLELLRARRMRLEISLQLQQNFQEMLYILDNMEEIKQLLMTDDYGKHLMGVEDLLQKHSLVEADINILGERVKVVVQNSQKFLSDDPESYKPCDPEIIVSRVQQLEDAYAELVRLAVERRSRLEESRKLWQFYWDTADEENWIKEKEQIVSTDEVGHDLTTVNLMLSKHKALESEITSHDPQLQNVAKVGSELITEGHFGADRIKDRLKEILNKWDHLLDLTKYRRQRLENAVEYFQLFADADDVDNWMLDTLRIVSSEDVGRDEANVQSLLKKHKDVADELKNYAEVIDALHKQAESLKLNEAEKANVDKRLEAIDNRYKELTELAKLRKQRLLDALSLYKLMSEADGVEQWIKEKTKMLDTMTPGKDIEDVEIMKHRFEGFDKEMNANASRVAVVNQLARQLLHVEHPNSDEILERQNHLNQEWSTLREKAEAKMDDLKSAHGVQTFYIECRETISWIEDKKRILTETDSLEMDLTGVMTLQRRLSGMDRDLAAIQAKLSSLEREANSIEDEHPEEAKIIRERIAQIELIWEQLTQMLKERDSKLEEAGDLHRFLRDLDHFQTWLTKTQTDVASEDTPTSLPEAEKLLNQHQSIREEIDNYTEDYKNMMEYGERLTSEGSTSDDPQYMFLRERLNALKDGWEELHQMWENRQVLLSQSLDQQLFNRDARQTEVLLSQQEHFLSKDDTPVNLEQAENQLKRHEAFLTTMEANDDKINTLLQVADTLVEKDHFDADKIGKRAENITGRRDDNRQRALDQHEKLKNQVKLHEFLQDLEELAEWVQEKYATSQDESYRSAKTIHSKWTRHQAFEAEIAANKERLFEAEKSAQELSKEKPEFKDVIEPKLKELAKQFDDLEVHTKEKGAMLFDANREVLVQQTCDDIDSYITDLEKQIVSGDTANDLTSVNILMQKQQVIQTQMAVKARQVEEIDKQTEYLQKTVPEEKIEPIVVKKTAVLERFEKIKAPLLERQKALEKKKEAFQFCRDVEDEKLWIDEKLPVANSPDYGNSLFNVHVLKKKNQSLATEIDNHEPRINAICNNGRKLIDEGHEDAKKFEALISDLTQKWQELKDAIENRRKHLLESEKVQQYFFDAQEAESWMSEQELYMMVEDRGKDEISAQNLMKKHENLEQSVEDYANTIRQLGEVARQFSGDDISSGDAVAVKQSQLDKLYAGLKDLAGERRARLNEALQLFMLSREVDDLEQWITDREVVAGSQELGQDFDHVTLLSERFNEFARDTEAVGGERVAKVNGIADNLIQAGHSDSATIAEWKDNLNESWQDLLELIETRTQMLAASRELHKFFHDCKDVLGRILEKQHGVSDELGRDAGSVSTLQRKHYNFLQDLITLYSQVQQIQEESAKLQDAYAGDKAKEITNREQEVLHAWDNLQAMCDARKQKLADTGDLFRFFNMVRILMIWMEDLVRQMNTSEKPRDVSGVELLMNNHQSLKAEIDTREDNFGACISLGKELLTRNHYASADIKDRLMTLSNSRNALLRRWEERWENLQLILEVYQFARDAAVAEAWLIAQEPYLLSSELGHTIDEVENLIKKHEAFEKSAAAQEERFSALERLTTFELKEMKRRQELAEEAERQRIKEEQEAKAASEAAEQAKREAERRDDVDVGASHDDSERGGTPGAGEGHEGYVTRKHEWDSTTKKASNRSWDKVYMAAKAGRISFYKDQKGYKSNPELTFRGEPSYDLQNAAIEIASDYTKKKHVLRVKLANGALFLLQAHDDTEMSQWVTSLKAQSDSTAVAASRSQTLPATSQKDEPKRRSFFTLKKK

B1: bacterially expressed alpha0-1(R22S) (domain or fragment)
chain: MENFTPKEVKILETVEDIQERSEQVLSRYNDFKIETRQKREKLEDSRRFQYFKRDADELESWIHEKLQAASEESYRDPTNLQAKIQKHQAFEAEVSAHSNAIVSLDNTGQEMINQQHFASESIQVRLDELHKLWELLLSRLAEKGLKLQQ
Molecule B1 yielded a percent intact (chymotrypsin protection, beta18 present) of 61.2%.
